According to patent US10280205B2, “Method for treating cancer with an activated T lymphocyte that selectively recognizes a cancer cell consisting of specific peptide” (immatics biotechnologies GmbH, priority 2015, dated 2019):

Target: HLA-A*02:01 (Homo sapiens, UniProt P04439, D140Y/D185E/D98H/E176V/E277Q/G131W/G231S/I119V/I121R/I166T/I218V/L300P/L318F/N151K/N90K/P208A/P217A/Q86G/Q94H/R138H/R169H/T345S)
Assay: MHC binding assay: UV-ligand exchange with beta2m ELISA (exchange yield)
Details: binding to HLA-A*02:01, β2m ELISA
Source text: Candidate peptides for T cell based therapies according to the present invention were further tested for their MHC binding capacity (affinity). The individual peptide-MHC complexes were produced by UV-ligand exchange, where a UV-sensitive peptide is cleaved upon UV-irradiation, and exchanged with the peptide of interest as analyzed. Only peptide candidates that can effectively bind and stabilize the peptide-receptive MHC molecules prevent dissociation of the MHC complexes. To determine the yield of the exchange reaction, an ELISA was performed based on the detection of the light chain (β2m) of stabilized MHC complexes. The assay was performed as generally described in Rodenko et al. (Rodenko et al., 2006).
96 well MAXISorp plates (NUNC) were coated over night with 2 ug/ml streptavidin in PBS at room temperature, washed 4× and blocked for 1 h at 37° C. in 2% BSA containing blocking buffer. […] Peptide-MHC monomers of the UV-exchange reaction were diluted 100 fold in blocking buffer. Samples were incubated for 1h at 37° C., washed four times, incubated with 2 ug/ml HRP conjugated anti-β2m for 1h at 37° C., washed again and detected with TMB solution that is stopped with […]. Absorption was measured at 450 nm. Candidate peptides that show a high exchange yield (preferably higher than 50%, most preferred higher than 75%) are generally preferred for a generation and production of antibodies or fragments thereof, and/or T cell receptors or fragments thereof, as they show sufficient avidity to the MHC molecules and prevent dissociation of the MHC complexes.

Peptide exchange (MHC class I binding score, peptide exchange yield) | Substance
“++++” (≥75% = ++++) | 576 (ILLNNSGQIKL; listed as Homo sapiens) [compound 576]
“+++” (≥50 = +++) | 280 (VLPDPEVLEAV; listed as Homo sapiens) [compound 280]
“+++” (≥50 = +++) | 551 (KLYESLLPFA; listed as Homo sapiens) [compound 551]
“++” (≥20% = ++) | 186 (TLFFQQNAL; listed as Homo sapiens) [compound 186]
“++++” (≥75% = ++++) | 329 (FLVTLNNVEV; listed as Homo sapiens) [compound 329]
“+++” (≥50 = +++) | 573 (ILVANAIVGV; listed as Homo sapiens) [compound 573]
“++” (≥20% = ++) | 31 (YLAPELFVNV; listed as Homo sapiens) [compound 31]
“+++” (≥50 = +++) | 23 (VLLDDIFAQL; listed as Homo sapiens) [compound 23]
“++” (≥20% = ++) | 217 (ALIHPVSTV; listed as Homo sapiens) [compound 217]
“+++” (≥50 = +++) | 430 (HLYSSIEHLTT; listed as Homo sapiens) [compound 430]
“+++” (≥50 = +++) | 248 (FLFPNQYVDV; listed as Homo sapiens) [compound 248]
“++++” (≥75% = ++++) | 89 (YILPTETIYV; listed as Homo sapiens) [compound 89]
“++++” (≥75% = ++++) | 552 (GLLDLPFRVGV; listed as Homo sapiens) [compound 552]
“++” (≥20% = ++) | 92 (YLIPFTGIVGL; listed as Homo sapiens) [compound 92]
“+++” (≥50 = +++) | 134 (YLQELIFSV; listed as Homo sapiens) [compound 134]
“+++” (≥50 = +++) | 50 (SLSELEALM; listed as Homo sapiens) [compound 50]
“+++” (≥50 = +++) | 613 (RLLPPGAVVAV; listed as Homo sapiens) [compound 613]
“+++” (≥50 = +++) | 71 (GILARIASV; listed as Homo sapiens) [compound 71]
“+++” (≥50 = +++) | 35 (KINDTIYEV; listed as Homo sapiens) [compound 35]
“+++” (≥50 = +++) | 182 (MLLEAPGIFL; listed as Homo sapiens) [compound 182]
“+++” (≥50 = +++) | 582 (TLCDVILMV; listed as Homo sapiens) [compound 582]
“+++” (≥50 = +++) | 462 (KLAKQPETV; listed as Homo sapiens) [compound 462]
“++” (≥20% = ++) | 21 (VLDELDMEL; listed as Homo sapiens) [compound 21]

Peptide exchange (MHC class I binding score, peptide exchange yield) | Substance
“+++” (≥50 = +++) | 426 (RLADKSVLV; listed as Homo sapiens) [compound 426]
“++++” (≥75% = ++++) | 320 (KMFEFVEPLL; listed as Homo sapiens) [compound 320]
“++” (≥20% = ++) | 176 (YLMEGSYNKVFL; listed as Homo sapiens) [compound 176]
“+++” (≥50 = +++) | 616 (VLIDEVESL; listed as Homo sapiens) [compound 616]
“+++” (≥50 = +++) | 295 (VLDRESPNV; listed as Homo sapiens) [compound 295]
“++++” (≥75% = ++++) | 602 (YLLEQIKLIEV; listed as Homo sapiens) [compound 602]
“++++” (≥75% = ++++) | 137 (TLVLTLPTV; listed as Homo sapiens) [compound 137]
“++” (≥20% = ++) | 233 (VLSETLYEL; listed as Homo sapiens) [compound 233]
“++” (≥20% = ++) | 377 (FLLDSSASV; listed as Homo sapiens) [compound 377]
“++” (≥20% = ++) | 455 (SLLKEPQKVQL; listed as Homo sapiens) [compound 455]
“+++” (≥50 = +++) | 396 (ALLPDLPAL; listed as Homo sapiens) [compound 396]
“++” (≥20% = ++) | 80 (FLYDNLVESL; listed as Homo sapiens) [compound 80]
“+++” (≥50 = +++) | 600 (ALAAPDIVPAL; listed as Homo sapiens) [compound 600]
“+++” (≥50 = +++) | 201 (RLVDYLEGI; listed as Homo sapiens) [compound 201]
“+++” (≥50 = +++) | 367 (SLQNHNHQL; listed as Homo sapiens) [compound 367]
“++++” (≥75% = ++++) | 305 (SIANFSEFYV; listed as Homo sapiens) [compound 305]
“++” (≥20% = ++) | 277 (LLPPLESLATV; listed as Homo sapiens) [compound 277]
“+++” (≥50 = +++) | 95 (SVIPQIQKV; listed as Homo sapiens) [compound 95]
“+++” (≥50 = +++) | 397 (YLFGERLLEC; listed as Homo sapiens) [compound 397]
“++” (≥20% = ++) | 32 (KLDDLTQDLTV; listed as Homo sapiens) [compound 32]
“+++” (≥50 = +++) | 308 (SQYSGQLHEV; listed as Homo sapiens) [compound 308]
“++++” (≥75% = ++++) | 310 (FLVDTPLARA; listed as Homo sapiens) [compound 310]
“+++” (≥50 = +++) | 407 (YLMDLINFL; listed as Homo sapiens) [compound 407]
